We go through three substances from patent publication US20020082235A1.

This experiment concerns the target Hoxc-8 (in the transfected C3H10T1/2 and 2T3 cells). As to the kind of experiment: cell-based or functional assay.
In turn, “Smad1-L (aa 145-276) fused with a nuclear localization signal” registered an osteopontin promoter activity (OPN-266 luciferase reporter, C3H10T1/2 cells) of 3 to 5 fold.
“Smad1-M (101-191) fused with a nuclear localization signal” came in with an osteopontin promoter activity (OPN-266 luciferase reporter, C3H10T1/2 cells) of 3 to 5 fold.
The substance “Smad1-NL (amino acids 3-276) fused with a nuclear localization signal” had an osteopontin promoter activity (OPN-266 luciferase reporter, C3H10T1/2 cells) of 3 to 5 fold.
